Experiment: yeast display, Sf9 membrane polyspecificity reagent, FACS + sequencing; frameworks hold sequencing errors
Summary of the method: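 Polyreactivity labels are assigned by the sorting gate from which each nanobody was recovered. The gates were low and high (top ~1%), set on anti-HA fluorescence for expression and streptavidin fluorescence for reagent binding. Before sorting, galactose-induced (36–48 hours) yeast display cells were stained for 1 hour at 4 °C with 10% biotinylated, detergent-solubilized Sf9 membrane reagent.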

Row | Sequence | polyreactivity (PSR sort gate)
1 | QVHLVETVGGLVKAGGSLRLSFAASGSIFTSNDMGWYRQEPGKERELVAAISSGGRTYYADSVKGRFTISRDNAKNTVYLQMNSLKPEYTAVYYCAVDPHLYALRGAVYYWGQGTQVTVSS | low polyreactivity
2 | QVQLVESGGGLVQAGGSLRLSCAASGSTLASYAMGWYRQAPGKERELVAAISLSGGSTYYADSVKGRFTISRDNAKNTVYLQMNSLKPEDTAVYYCAAETVRYEWGESPAALFDYWGQGTQVTVSS | low polyreactivity
3 | QVQLVESGGGLVQAGGSLRLSCAASGRIFYRNAMGWYRKAPGKEREWVAAISSSAGSTFYADSVKGRFTISRDNSKNTVYLQMNSLKPEDTAVYYCAAGSGTFVTRYRYGYWGQGTQVTVSS | high polyreactivity
4 | QVQLVDSGGGLVQAGGSLRLSCAASGSIIYDYPMGWYRQAPGKEREFVASIDWRGDSTYYADSVKGRFTNSRDNAKNTVYLQMNRLKPEDTAVYYCAADRSYQYYFYEDYGYDYWGQGTQVTVSS | low polyreactivity
5 | QVQLVETGGGLVQAGGSLRLSCAASGSTFHGYAMGWYRQEPGKERELVAAITSGDSTNYADSVKGRFTISRDNAKNTVYLQMNSLKPEDTAVYYCNAEGSSVLTGYWGYPPYWDTYDYWGQGTQVTVSS | low polyreactivity
6 | QVQLVESGGGLVQAGGSLRLSCAASGLTFLYYAMGWYRQAPGKERELVAAISRSGGSTYYADSVKGRFTISRDNAKNTVYLQMNSLKPEDTAVYYCAAGRRGGKQGGTRGGDYWGQGTQVTVSS | high polyreactivity
7 | QVQLVESGGGLVQAGGSLRLSCAASGFIFHRYAMGWYRQAPGKERELVASITRSGGSTYYADSVKGRFTISRDNAKNTVYLQMNSLKPEDTAVYYCAAQLPSYYKYPRHDYWGQGTQVTVSS | high polyreactivity
8 | QVQLVESGGGLVQAGGSLRLICAASGSTFLKYAMGWYRQAPGKERELVAAITYRGGTTYYADSVKGRFTISRDNAKNTVYLQMNSLKPEDTAVYYCAARGYKRMGYWGQGTQVTVSS | high polyreactivity
9 | QVQLVESGGGLVQAGGRLRLSCAASGFTFTRYAMGWYRQAPGKERELVAAISWSGGSTYYADSVKGRFTISRDNAKNTVYLQMNSLKPEDTAVYYCAKRGTVRQGGYGYWGQGTQVTVSS | high polyreactivity
10 | QVQLVESGGGLVQAGGSLRLSCAASGRIFWRNTMGWYRQAPGKERELVAAINYSGGRTYYADSVKGRFTISRDNAKNTVYLQMNSLKPEDTAVYYCAATPPVATNGRYYYWGQGTQVTVSS | low polyreactivity
11 | QVQLVESGGGLVQAGGSLRLSCAASGLIFTRNAMGWYRQAPGKERELVATITWSGGRTYYADSVKGRFTISRDNAKNTVYLQMNSLKPEDTAVYYCAAASGPLTYTFFRNDYWGQGTQVTVSS | low polyreactivity
12 | QVQLVESGGGLVQAGRSLRLSCAASGLISRRNAMGWYRQAPGKQRELVAAISTGSSTNYADSVKGRFTISRDNAKNTVYLQMNSLKPEDTAVYYCASTQYWWSTLGIRDDYWGQGTQVTVSS | low polyreactivity
13 | QVQLLESGGGLVQAGGSLRLSCAASGNTFTYYAMGWYRQAPGKERELVAAISDDGNTNYADSVMGRFTISRDNAKKTVYSQMNSLKPEDTAVYYCNADSYPSLNKRGYDYWGQGTQVTVSS | low polyreactivity
14 | QVQLVESGGGLVQAGGSLRLSCAASGFTFAKYVMGWYRQAPGKERELVAAISFSGGSTYYADSVKGRFTISRDNAKNTVYLQMNSLKPEDTAVYYCAALSDSRWHRFGYWGQGTQVTVSS | high polyreactivity
15 | QVQLVESGGGLVQAGGSLRLSCAASGYIFLANAMGWYRQAPGKERELVAAITSGGGGTYYADSVKGRFTISRDNAKNTVYLQMNSLKPEDTAVYYCAADHGRDGSSFEYWGQGTQVTVSS | low polyreactivity
16 | QVQLVESGGGLVQAGGSLRLSCAASGFIFVSNAMGWYRQAPGKERELVATITNGDRTYYADSVKGRFPISRDNAKNTVYLQMNSLKPEDTAVYYCNADFRAREVFLFDSWGQGTQVTVSS | low polyreactivity
17 | QVQLVESGGGLVQAGGSLRLSCAASGFIYRKNAMGWYRQAPGKERELVATITKSGDTTYYADSVKGRFTISRDNAKNTVYLQMNSLKPEDTAVYYCAAPLYYIGSWDYYVRYIYDYWGQGTQVTVSS | low polyreactivity
18 | QVPLVESGGGLVQAGGSLRISCAASGSTFWYYAMGWYRQAPGKEREMVATITSTGTTNYADSVKGRFTISRDTAKNTVYLQMNSLKPEDTAVYYCNARSWSYSYPYLTYYYIAGYWGQGTQVTVSS | low polyreactivity
19 | QVQLVESGGGLVQAGGSLRLSCAASGRIFPSYAMGWYRQAPGKERELVAGIRSGGGSTYYADSVKGRFTISRDNAKNTVYLQMNSLKPEDTAVYYCAADPGLYGDYPLAEDYWGQGTQVTVSS | low polyreactivity
20 | QVQLVESGGGLVQAGGSLRLSCAASGSIFAHYAMGWYRQAPGKERELVAAISWGGGRTYYADSVKGRFTISRDNAKNTVYLQMNSLKPEDTAVYYCAARAANKSNYWGQGTQVTVSS | low polyreactivity
21 | QVQLVESGGGLVQAGGSLRLSCAASGRIFDHNAMGWYRQAPGKERELVAAINYSDDSTYYADSVKGRFTISRDNAKNTVYLQMNSLKPEDTAVYYCNADVGSEYSDKYDYWGQGTQVTVSS | low polyreactivity
22 | QVQLVESGGGLVQAGGSLRLSCAASGRTFLWYDMGWYRQAPGKERELVAGITSDGITYYADSVKGRFTISRDNAKNTVNLQMNSLKPEDTAVYYCAADGIYPDAVYFGYPMYYWGQGTQVTVSS | low polyreactivity

Row | Sequence | polyreactivity (PSR sort gate)
23 | QVQLVESGGGLVQAGGSLRLSCAASGSIFEWYAMGLYRQAPGKETELVAAISSGGRTYYADSVKGRFTISRDNAKNTVYLQMNSLKPEDTAVYYCAGRDVDHVGGSKYYYWGQGTQVTVSS | high polyreactivity
24 | QVQLVESGGGLVQAGGSLGLSCAASGSTFQFYAMGWNRQAPGKERELVAAISWSSGSTYYADSVKGRFTISRDNAKNSVYLQMNSLKPEHTAVYYCNARYPWSYRYWDGGYWGQGTQVTVSS | low polyreactivity
25 | QVQLVESGGGLVQAGGSLRLSCAAAGIIFILYTMGWYRKAPGKERELVATISSGGGSTFYADSVKGRFTISRDNAKNTVYLQMHRLKPEDTAVYYCAAFPVFGYSYDYWGQGTQVTVSS | low polyreactivity
26 | QVQLVESGGGLVQAGGSLRLSCAASVRIFDYNAMGWYRQAPGKERELVAAITSGGSTNYADSVKGRFTISRDNAKNTVYLQMNSLKPEDTAVYYCNAEPETTIDYWGQGTQVTVSS | low polyreactivity
27 | QVQLVESAGGLVQAGGSLRLSCDASGRIIRGNAMGWYRQAPGKEREMVAAINRSGGSTYYADSVKGRFTISRDNAKNTVYLQMKSLKQEDTAVYYCIAYPASRKTGWSSGYYYWGQGTQVTVSS | high polyreactivity
28 | QVQLVESGGGLVQAGGSLRLSCAASGRTFHRYVMGWYRQAPGKERELVAAITRSGGITYYADSVKGRFTISRDNAKNTVYLQMNSLKPEDNAVYYCAKDDLTASGFDYWGQGTQVTVSS | low polyreactivity
29 | QVQLVESGGGLVQAGGSLRLSCAASGITFYRNAMGWYRQAPGKEREFVAAITSSGGSTYYADSVKGRFTISRDNAKNTVYLQMNSLKPEDTAVYYCRPGRWRVSHKYDYWGQGTQVTVSS | high polyreactivity
30 | QVQLEESGGGLVQAGGSLRLSCAASGSTFDYYARGWYRPAPGKERELVAVISSGGSTYYADSVKGRFTISRDNAKNTVYLQMNSLKPEDTAVYYCAAETYYYVLPHWYKYKYGYWGQGTQVTVSS | low polyreactivity
31 | QVQLVESGGGLVQAGGSLRLSCAASGSTFAFNAMGWYRQAPGKERELVATISQSGGSTYYADSVKGRFTISRDNAKNTVYLQMNSLKPEDTAVYYCAKRYWSKWYGRYEYWGQGTQVTVSS | low polyreactivity
32 | QVQLVESGGGLVQAGGSLRLSCAASGITFSHNAMGWYRQAPGKERELVAAITRSGGSTYYADSVKGRFTISRDNAKNTVYLQMNCLKPEDTAVYYCATEDYYRQYGYWSLSRMDHWGQGTQVTVSS | low polyreactivity
33 | QVQLVESGGGIVQAGGSLRFSCAASGGTFYRYAMGWYRLAPGNERELVAAISSSGGSTYYAVSVKGRFTISRDNAKNTVYLQMNSLKPEDTAVYYCAAYSFQSHNFDYWGQGSQVTVSS | high polyreactivity
34 | QVQLVESGGGLVQAGGSLRLSCAASGSIFSYYAMGWYRQAPGKERELVAAISGDSGRTYYADSVKGRFTISRDNAKNTVYLQMNSLKPEDTAVYYCNARVAYRYRTGYDYWGQGTQVTVSS | high polyreactivity
35 | QVQLVESGGGLVQAGGSLRLSCAASGLILVGNTMGWYRQAPGKERELVATITSGGRTYYADSVKGRFTISRDNAKNTVYLQMNSLKPEDTAVYYCAKRAFSYVGGQQDRKENYYYWGQGTQVTVSS | high polyreactivity
36 | QVQLVESGGAIVQAGRSLRLSCAASGNIFESYGMGWYRQAPGKERELVATINTSSGSTYYADSVKGRFTISRDNAKYTVYLQMNRLKPEDTAVYYCAVRPKTSWYSWYYLGQGTQVTVSS | low polyreactivity
37 | QVQLVESGGGLVQAGGSLRLSCAASGSIFYYYAMGWYRQAPGKERELVAAISGTGGSTYYADSVKGRFSISRDNAKNTVYLQMNSLKPEDTAVYYCAASFYIERHRYNYWGQGTQVTVSS | high polyreactivity
38 | QVQLVESGGGLVQAGGSLRLSCAASGSTFDGNAMGWYRQAPGTERELVAAITSGGSTNYADSVKGRFTISRDNAKNTVYLQMNSLKPEDTAVYYCAADTVSFSILYDYWGQGTQVTVSS | low polyreactivity
39 | QVQLVESGGGLVQAGGSLRLSCAASGRIFGVYAMGWYRQAPGKERELVAAIDRRGGRTYYADSVKGRFTISRDNAKNTVYLQMNSLKPEDTAVYYCATARYRAEMGYWGQGTQVTVSS | high polyreactivity
40 | QVQLVESGGGLVQAGGSLRLSCAASGSIFWSYDMGWYRQAPGKERELVATITSGDSTYYADSVKGRFTISRDNAKNTVYLQMNSLKPEDTAVYYCNVDVSVEVAYWGQGTQVTVSS | low polyreactivity
41 | QVQLVESGGGLVQAGGSLRISSAASGSIFGRYAMGWYRQAPGKERELVAAISSGTSTYYADSVKGRFTISRDNAKNTVYLQRNSLIPEDTAVYYCAARRYSVRSGGTGRMYYWGQGTQVTVSS | high polyreactivity
42 | QVQLVESGGGLVQAGGSLRLSCAASGSIFYYYGMGWYRQAPGKESDLVARISKSVGRTYYADSVKGRFTISRDNAKNTVYLQMNSLKPEDTAVYYCAASRSFQGNRYDYWGQGTQVTVSS | high polyreactivity
43 | QVQLVESGGGLVQAGGSLRLSCAASGRILRYNAMGWYRQAPGKERELVATITRSAGRTYSADSVKGRFTISRDNAKNTVYLQMNSLKPEDTAVYYCAKDTDISTLHSKGRAKSRYDYWGQGTQVTVSS | low polyreactivity
